This assay addresses 6-phosphogluconate dehydrogenase from Corynebacterium glutamicum ATCC 13032 (Corynebacterium glutamicum ATCC 13032). Nature of the assay: SEC; analytical, Superdex 200 Increase 10/300 GL; 1 ml at 1 mg/ml; 40 mM Tris-HCl pH 8.0, 150 mM NaCl; mass from a calibration curve. A general note: Size exclusion chromatography separates by hydrodynamic size, large species first.

The source of these data is paper PMC10619557, “Crystal Structures of 6-Phosphogluconate Dehydrogenase from Corynebacterium glutamicum” (Journal of Microbiology and Biotechnology, 2023).

Broadly, the stoichiometry N is a count of units in the complex or per binding partner.

Substance “6-phosphogluconate dehydrogenase from Corynebacterium glutamicum ATCC 13032 (enzyme)” displayed a stoichiometry N of 2.
